Reference: paper PMC7343156, “Purification and characterization of a novel medium-chain ribitol dehydrogenase from a lichen-associated bacterium Sphingomonas sp” (PLoS ONE, 2020)

Columns and labels:
purified protein [1] = substrate: NC(=O)c1ccc[n+]([C@@H]2O[C@H](COP(=O)(O)OP(=O)(O)OC[C@H]3O[C@@H](n4cnc5c(N)ncnc54)[C@H](O)[C@@H]3O)[C@@H](O)[C@H]2O)c1; assay: purified protein; format: biochemical, Sphingomonas sp. PAMC 26621; settings: 10-160 mM D-ribitol, NAD+ 0.05-1 mM, 100 mM potassium phosphate pH 8.0, 25°C, no added metal, varied: cofactor
purified protein [2] = substrate: OC[C@@H](O)[C@@H](O)[C@@H](O)CO; assay: purified protein; format: biochemical, Sphingomonas sp. PAMC 26621; settings: 10-160 mM D-ribitol, NAD+ 0.05-1 mM, 100 mM potassium phosphate pH 8.0, 25°C, no added metal

B1: SpRDH (Sphingomonas sp. PAMC 26621) (protein)
chain: MTQKTMTAVVCHGPKDYRVEEIAHPTAGALEFVIRVTACGICASDCKCWSGAKMFWGDDPWVKAPVVPGHEFFGVVDELGEGAGEHFGVAVGDRVIAEQIVPCERCRYCRSGQYWMCEVHNIFGFQRLVADGGMAQFMRLPRTSRVHLIPAEIPDDDAVIIEPLACALHTVRRGTIGFEDVVVIAGAGPIGLMMVQAARLQTPRKLVVIDMVPERLALATTFGADVVINPATDDALAIVHGLTDGYGCDVYIEATGSPAGVVQGLNLIRRLGRFVEFSVFGSDTTVDWSIIGDRKELDVRGAHLGPYCYPIAIDLLSRGLITSNGIVTHRFPLIQWAEAIAVADSLESIKVVLSPST
notes: native enzyme purified from Sphingomonas sp; PAMC 26621 grown on D-ribitol; untagged; identified by MALDI-TOF/TOF
Purified protein [1]
  Km: 0.3 ± 0.02 mM
  kcat: 29 ± 0.7 s⁻¹
Purified protein [2]
  Km: 8.5 ± 1.2 mM
  kcat: 29 ± 0.7 s⁻¹
  kcat/Km: 3500 M⁻¹ s⁻¹
